Experimental data from publication PMC5150637.

System: T1, MBP-SphR (Pseudomonas aeruginosa (strain PAO1?)), ORF:ae0b4f1c
T1 sequence: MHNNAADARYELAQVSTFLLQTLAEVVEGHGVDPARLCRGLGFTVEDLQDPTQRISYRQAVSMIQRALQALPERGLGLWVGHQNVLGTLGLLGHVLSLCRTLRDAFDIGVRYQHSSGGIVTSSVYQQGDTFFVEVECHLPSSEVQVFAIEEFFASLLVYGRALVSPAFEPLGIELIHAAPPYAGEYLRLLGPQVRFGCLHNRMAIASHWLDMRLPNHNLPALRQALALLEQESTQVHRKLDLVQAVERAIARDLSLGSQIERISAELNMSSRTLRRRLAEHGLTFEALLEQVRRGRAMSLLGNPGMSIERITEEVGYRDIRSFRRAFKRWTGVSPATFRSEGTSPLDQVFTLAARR
Assay: competition
Conditions: 10 mM Tris-HCl pH 7.5, 50 mM KCl, 1 mM DTT, 1 mM EDTA, 3 mM MgCl2, 50 ug/ml BSA, 4% glycerol, 0.05% NP-40, 50 ng/ul poly(dI-dC), 30 C, 30 min

## GGTTGCCACTGTAGTGCCAGGGTGGTGGAGTCGAGGGGGGCGTAGCGGACAGGAAGGGGGTGAGCGCCGGCCATCCTGCATGGACGGCAAGGCAGGCGGGTAAAAAAAGGCCGCCTGCGT (double strand) [cerN promoter -200 to -81, unlabeled competitor]
  binding: binds
